Assay results from paper PMC3402909 (Biopolymers, 2011).
Where a SMILES comes first, the peptide text is derived from it.

How the values were obtained:
Grb2-Sos1 association = Grb2-Sos1 association (Rattus norvegicus, UniProt P62994); experiment: Blockade of Grb2-Sos1 association in PC12 cell lysates; assay type: biochemical, human; conditions: 1 μM peptide, PC12 cell lysate
[1] = target: Sos1 WT peptide 1 PEP (Homo sapiens) (UniProt Q07889); conditions: cited from earlier work
Grb2 SH3 N-domain = experiment: other fluorescence titration

Chain of Grb2-Sos1 association (P62994 whole entry): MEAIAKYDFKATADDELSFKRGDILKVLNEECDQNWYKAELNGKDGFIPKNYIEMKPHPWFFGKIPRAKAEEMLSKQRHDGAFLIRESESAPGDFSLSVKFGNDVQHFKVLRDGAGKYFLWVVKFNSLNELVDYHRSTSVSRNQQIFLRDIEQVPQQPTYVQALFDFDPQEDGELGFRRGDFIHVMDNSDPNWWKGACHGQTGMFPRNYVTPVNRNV

## CC(=O)N1CCC[C@H]1C(=O)N[C@@H](CCCNC(=N)N)C(=O)N[C@H](C(=O)N1CCC[C@H]1C(=O)N1CCC[C@H]1C(=O)N1CCC[C@H]1C(=O)N1CCC[C@H]1C(=O)N[C@H](C(=O)N[C@@H](CCCNC(=N)N)C(=O)N[C@@H](CCCNC(=N)N)C(N)=O)C(C)C)C(C)C [Peptide 13, Ac-P-R-V-P-P-P-P-V-R-R-NH2] (Ac-PRVPPPPVRR-NH2)
Grb2-Sos1 association
  inhibition of Grb2-Sos1 association: little inhibition

## Grb2 N-terminal SH3 (from UniProt P62993)
[1]
  Kd: 39 µM

B1: scrambled peptide Ac-P-R-V-P-P-P-P-V-R-R-NH2 (13) (peptide)
peptide: Ac-PRVPPPPVRR-NH2
Grb2 SH3 N-domain
  Kd: 173 µM
